B1: M8a-34 Fab (Fab, V domains shown)
VH: QVQLQQPGAELVKPGASVKMSCKASGYTFITYWITWVKQRPGQGLEWIGDIYPGGGRTNYNEKFKSKATLTVDTSSSTAYMQLRSLTSEDSAVYYCARYDGNYVGYYYAMDYWGQGTSVTVSS
VL: DIVLTQSPVSLAVSLGQRATISCRASESVDFYGNSFIYWYQQKPGQAPKLLIYRASNLESGIPARFSGSGSRTDFTLTIHPVEADDVATYYCQQSIEDPRTFGGGTKLEIK
B2: M8a-34 (antibody, V domains shown)
VH: QVQLQQPGAELVKPGASVKMSCKASGYTFITYWITWVKQRPGQGLEWIGDIYPGGGRTNYNEKFKSKATLTVDTSSSTAYMQLRSLTSEDSAVYYCARYDGNYVGYYYAMDYWGQGTSVTVSS
VL: DIVLTQSPVSLAVSLGQRATISCRASESVDFYGNSFIYWYQQKPGQAPKLLIYRASNLESGIPARFSGSGSRTDFTLTIHPVEADDVATYYCQQSIEDPRTFGGGTKLEIK
B3: HSW-2 Fab (Fab, V domains shown)
VH: QVQLQQSGPELVKPGASVKISCKASGYVFSTSWMSWVKQRPGEGPEWIGRIYPRDGHSSSTGKFKDKATLTADKSSNTAYIHLSSLTSEDSAVYFCARDYGYYYFDYWGQGTTLTVSS
VL: DIQMTQSPASLSASVGEAVTITCRLSENVYSFLAWYQQKQGKSPQLLVYRAKTLAEGVPSRFSGSGSGTQFSLKINSLQPEDFGTYYCQHHYGTPPTFGGGTKLEIK
B4: HSW-2 (antibody, V domains shown)
VH: QVQLQQSGPELVKPGASVKISCKASGYVFSTSWMSWVKQRPGEGPEWIGRIYPRDGHSSSTGKFKDKATLTADKSSNTAYIHLSSLTSEDSAVYFCARDYGYYYFDYWGQGTTLTVSS
VL: DIQMTQSPASLSASVGEAVTITCRLSENVYSFLAWYQQKQGKSPQLLVYRAKTLAEGVPSRFSGSGSGTQFSLKINSLQPEDFGTYYCQHHYGTPPTFGGGTKLEIK
B5: M8a-3 (antibody, V domains shown)
VH: QVQLQQPGAELVLPGASVKLSCKASGYTFTNYWMHWVKQRPGHGLEWIGEIDPFDTYIKINQKFKGKSTLTVDTSSSTAYMQLSSLTSEDSAVYYCARPDSSGYPVYFDYWGQGTTLTVSS
VL: DIVMTQSHKFMSTSVGDRVSITCKASQDVGTYIAWYQQKPGQSPKLLIYWASTRHTGVPDRFTGSGSGTNYTLTISSVQAEDLALYHCQQHYSTPYTFGGGTKLEIK
B6: M8a-7 (antibody, V domains shown)
VH: QAYLQQSGAEMVRPGASVKMSCKASGYTFNNYNMHWVKQTPSQGLEWIGGFYPGNDDTAYSQKFKGKATLTVDKSSSTAFMHLSSLTSEDSAVYFCARSLGRYYAMDYWGQGTSVTVSS
VL: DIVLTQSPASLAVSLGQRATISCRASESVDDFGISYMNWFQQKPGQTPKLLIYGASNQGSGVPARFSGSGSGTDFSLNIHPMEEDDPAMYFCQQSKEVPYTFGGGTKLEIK
B7: M8a-25 (antibody, V domains shown)
VH: EVQLQQSVAELVRPGASVKLSCTASGFNIKNTYMHWVKQRPEQGLEWIGRIDPSIDHTRYAPKFQGKAVITAFTSSNTAYLQLSSLTSEDTAIYYCAREGGGNYPYYYAIDYWGQGTSVTVSS
VL: DIQMTQSSSSFSVSLGDRVTITCKASEDIYIRLAWYQQRPGNAPRLLISNAISLETGVPSRFSGSGFGKDHTLSITSLQTEDVATYYCQQYWSTPWTFGGGTKLEIK
B8: M8a-31 (antibody, V domains shown)
VH: EVQLKQSVAELVRPGASVKVSCTASGFNIKNIYMHWVKQRPEQGLDWIGRIDPANGNSRYAPKFQDKATITADTSSNTAYLQLSSLTSEDTAIYYCADEGWGFANWGQGTLVTVSA
VL: DIVMTQSPSSLTVTAGEKVTMSCKSSQSLLNSGNQKNYLTWYQQKVGQPPKLLIYWASTRDPGVPDRFTGSGFGTDFTLTISSVQAEDLAVYYCQNDYSYPLTFGAGTKVELK
B9: M8a-28 (antibody, V domains shown)
VH: QVQLQQPGAELVKPGASVKMSCKASGYNFNHYWISWVKQRPGQGLEWIGDIYPLSHFTTYNEKFTNRATLTVDTSSTTAYMQLNSLTSDDSAVFYCARWDYFDSRTFDYWGQGTTLTVSS
VL: DILLTQFPAILSVSPGERVSFSCRASQTIGTNIHWYQQRINGSPRLLIKYASESISGIPSRFSGSGSGTDFSLSINNVESEDIADYYCQQINSWPLTFGAGTKLDLK
B10: M8a-6 (antibody, V domains shown)
VH: QVQLQQPGTELVMPGASVKLSCKTSGYTFTHYWMHWVKQRPGEGLEWIGEIAPSDNYVKYNQKFKGKSTLSVDRSSSTAYMQLSSLTSEDSAVYFCARPDNSGYPVYFDYWGQGTSLTVSS
VL: DIVMTQSQKFMSTSLGDRVSISCKASQDVGTTVAWYQQKPGQSPKLLIYWASTRHTGVPDRFTGTGSGTDYTLTISSVAAEDLALYYCQQHYNTPYTFGGGTKLEIE
B11: M8a-6 Fab (Fab, V domains shown)
VH: QVQLQQPGTELVMPGASVKLSCKTSGYTFTHYWMHWVKQRPGEGLEWIGEIAPSDNYVKYNQKFKGKSTLSVDRSSSTAYMQLSSLTSEDSAVYFCARPDNSGYPVYFDYWGQGTSLTVSS
VL: DIVMTQSQKFMSTSLGDRVSISCKASQDVGTTVAWYQQKPGQSPKLLIYWASTRHTGVPDRFTGTGSGTDYTLTISSVAAEDLALYYCQQHYNTPYTFGGGTKLEIE
B12: HSW-1 (antibody, V domains shown)
VH: QVQLQQPGAELVKPGTSMKLSCKASGYTFTSYWMHWVKQRPGQGLEWIGMIHPNSGSTKYNENFKSKATLTVDKSSSTAYMQFSSLTSEDSAVYYCVRSGSYYGTTYDYFDYWGQGTTLTVSS
VL: DIVLTQSPASLAVSLGQRATISCRASESVNIYGNSFMHWYQQKPGQPPKLLIFRASNLESGIPVRFSGSGSRTDFTLTINPVEADDVATYYCHQSNEDPFTFGSGTKLEIK

Key:
SARS-CoV-2 WA1 RBD [1] = target: T1, SARS-CoV-2 WA1 RBD (SARS-CoV-2 WA1, UniProt P0DTC2 319-539); experiment: X-ray crystallography of SEC-purified Fab-RBD complex (PDB 7UZC)
T1 construct: range 319-539

SARS-CoV RBD [2] = target: T2, SARS-CoV RBD (SARS-CoV, UniProt P59594 318-510); experiment: Beacon optofluidic screen: IgG secreted by single B cell, RBD on beads
SARS-CoV-2 WA1 RBD [3] = target: T1, SARS-CoV-2 WA1 RBD; experiment: as above
SARS-CoV-2 WA1 RBD [4] = target: T1, SARS-CoV-2 WA1 RBD; experiment: X-ray crystallography of SEC-purified Fab-RBD complex (PDB 7UZD)
SARS-CoV RBD [5] = target: T2, SARS-CoV RBD; experiment: ELISA, coated RBD, purified IgG
SARS-CoV-2 WA1 RBD [6] = target: T1, SARS-CoV-2 WA1 RBD; experiment: ELISA, purified IgG
SARS-CoV-2 WA1 RBD [7] = target: T1, SARS-CoV-2 WA1 RBD; experiment: X-ray crystallography of SEC-purified Fab-RBD complex

Row | Binder | binding result (SARS-CoV RBD [2]) | binding result (SARS-CoV-2 WA1 RBD [3]) | further results
1 | B1 | – | – | binding result (SARS-CoV-2 WA1 RBD [1]): binds
2 | B2 | binds | binds | –
3 | B3 | – | – | binding result (SARS-CoV-2 WA1 RBD [4]): binds
4 | B4 | – | binds | binding result (SARS-CoV RBD [5]): no binding (tested: up to 100 µg/mL IgG)
5 | B5 | binds | – | –
6 | B6 | binds | – | –
7 | B7 | binds | – | –
8 | B8 | binds | – | binding result (SARS-CoV-2 WA1 RBD [6]): binds
9 | B9 | binds | – | –
10 | B10 | – | binds | –
11 | B11 | – | – | binding result (SARS-CoV-2 WA1 RBD [7]): binds
12 | B12 | – | binds | binding result (SARS-CoV RBD [5]): no binding (tested: up to 100 µg/mL IgG)

— patent US20230250157A1 (CALIFORNIA INSTITUTE OF TECHNOLOGY, published 2023)
